Patent US20050260177A1

Legend:
[1] = target: Ra12-C888P fusion protein (human C888P fused to Mycobacterium tuberculosis Ra12); test: ELISA, RC888P on plate, serum 1:128000, well 2
[2] = target: Ra12-C888P fusion protein (human C888P fused to Mycobacterium tuberculosis Ra12); test: ELISA, RC888P on plate, serum 1:2000, average of 2 wells
[3] = target: Ra12-C888P fusion protein (human C888P fused to Mycobacterium tuberculosis Ra12); test: ELISA, RC888P on plate, serum 1:1024000, well 1
[4] = target: Ra12-C888P fusion protein (human C888P fused to Mycobacterium tuberculosis Ra12); test: ELISA, RC888P on plate, serum 1:1000, well 2
[5] = target: Ra12-C888P fusion protein (human C888P fused to Mycobacterium tuberculosis Ra12); test: ELISA, RC888P on plate, serum 1:1000, well 1
[6] = target: Ra12-C888P fusion protein (human C888P fused to Mycobacterium tuberculosis Ra12); test: ELISA, RC888P on plate, serum 1:128000, average of 2 wells
[7] = target: Ra12-C888P fusion protein (human C888P fused to Mycobacterium tuberculosis Ra12); test: ELISA, RC888P on plate, serum 1:32000, well 2
[8] = target: Ra12-C888P fusion protein (human C888P fused to Mycobacterium tuberculosis Ra12); test: ELISA, RC888P on plate, serum 1:32000, average of 2 wells
[9] = target: Ra12-C888P fusion protein (human C888P fused to Mycobacterium tuberculosis Ra12); test: ELISA, RC888P on plate, serum 1:16000, average of 2 wells
[10] = target: Ra12-C888P fusion protein (human C888P fused to Mycobacterium tuberculosis Ra12); test: ELISA, RC888P on plate, serum 1:256000, well 2
[11] = target: Ra12-C888P fusion protein (human C888P fused to Mycobacterium tuberculosis Ra12); test: ELISA, RC888P on plate, serum 1:2000, well 2
[12] = target: Ra12-C888P fusion protein (human C888P fused to Mycobacterium tuberculosis Ra12); test: ELISA, RC888P on plate, serum 1:128000, well 1
[13] = target: Ra12-C888P fusion protein (human C888P fused to Mycobacterium tuberculosis Ra12); test: ELISA, RC888P on plate, serum 1:64000, well 1
[14] = target: Ra12-C888P fusion protein (human C888P fused to Mycobacterium tuberculosis Ra12); test: ELISA, RC888P on plate, serum 1:16000, well 1
[15] = target: Ra12-C888P fusion protein (human C888P fused to Mycobacterium tuberculosis Ra12); test: ELISA, RC888P on plate, serum 1:256000, average of 2 wells
[16] = target: Ra12-C888P fusion protein (human C888P fused to Mycobacterium tuberculosis Ra12); test: ELISA, RC888P on plate, serum 1:8000, average of 2 wells
[17] = target: Ra12-C888P fusion protein (human C888P fused to Mycobacterium tuberculosis Ra12); test: ELISA, RC888P on plate, serum 1:4000, well 1
[18] = target: Ra12-C888P fusion protein (human C888P fused to Mycobacterium tuberculosis Ra12); test: ELISA, RC888P on plate, serum 1:512000, average of 2 wells
[19] = target: Ra12-C888P fusion protein (human C888P fused to Mycobacterium tuberculosis Ra12); test: ELISA, RC888P on plate, serum 1:2000, well 1
[20] = target: Ra12-C888P fusion protein (human C888P fused to Mycobacterium tuberculosis Ra12); test: ELISA, RC888P on plate, serum 1:16000, well 2
[21] = target: Ra12-C888P fusion protein (human C888P fused to Mycobacterium tuberculosis Ra12); test: ELISA, RC888P on plate, serum 1:1000, average of 2 wells
[22] = target: Ra12-C888P fusion protein (human C888P fused to Mycobacterium tuberculosis Ra12); test: ELISA, RC888P on plate, serum 1:512000, well 2
[23] = target: Ra12-C888P fusion protein (human C888P fused to Mycobacterium tuberculosis Ra12); test: ELISA, RC888P on plate, serum 1:8000, well 2
[24] = target: Ra12-C888P fusion protein (human C888P fused to Mycobacterium tuberculosis Ra12); test: ELISA, RC888P on plate, serum 1:256000, well 1
[25] = target: Ra12-C888P fusion protein (human C888P fused to Mycobacterium tuberculosis Ra12); test: ELISA, RC888P on plate, serum 1:512000, well 1
[26] = target: Ra12-C888P fusion protein (human C888P fused to Mycobacterium tuberculosis Ra12); test: ELISA, RC888P on plate, serum 1:32000, well 1
[27] = target: Ra12-C888P fusion protein (human C888P fused to Mycobacterium tuberculosis Ra12); test: ELISA, RC888P on plate, serum 1:64000, average of 2 wells
[28] = target: Ra12-C888P fusion protein (human C888P fused to Mycobacterium tuberculosis Ra12); test: ELISA, RC888P on plate, serum 1:4000, average of 2 wells
[29] = target: Ra12-C888P fusion protein (human C888P fused to Mycobacterium tuberculosis Ra12); test: ELISA, RC888P on plate, serum 1:1024000, average of 2 wells
[30] = target: Ra12-C888P fusion protein (human C888P fused to Mycobacterium tuberculosis Ra12); test: ELISA, RC888P on plate, serum 1:64000, well 2
[31] = target: Ra12-C888P fusion protein (human C888P fused to Mycobacterium tuberculosis Ra12); test: ELISA, RC888P on plate, serum 1:4000, well 2
[32] = target: Ra12-C888P fusion protein (human C888P fused to Mycobacterium tuberculosis Ra12); test: ELISA, RC888P on plate, serum 1:8000, well 1
[33] = target: Ra12-C888P fusion protein (human C888P fused to Mycobacterium tuberculosis Ra12); test: ELISA, RC888P on plate, serum 1:1024000, well 2

Measured: ELISA absorbance at 450 nm

Preimmune sera (antibody)
0.07 OD450: [21]
0.09 OD450: [5]
0.06 OD450: [1] | [2] | [3] | [4] | [6] | [8] | [9] | [10] | [12] | [13] | [14] | [15] | [16] | [17] | [18] | [19] | [23] | [24] | [25] | [26] | [27] | [28] | [29] | [32] | [33]
0.05 OD450: [7] | [11] | [20] | [22] | [30] | [31]
